Key:
[1] = molecular target: CD14 (human) (UniProt P08571); test: cell-based or functional assay
[2] = molecular target: human TLR4 (Toll-like receptor 4) (human) (UniProt O00206); test: cell-based or functional assay
Sequence of UniProt O00206 (O00206 24-839): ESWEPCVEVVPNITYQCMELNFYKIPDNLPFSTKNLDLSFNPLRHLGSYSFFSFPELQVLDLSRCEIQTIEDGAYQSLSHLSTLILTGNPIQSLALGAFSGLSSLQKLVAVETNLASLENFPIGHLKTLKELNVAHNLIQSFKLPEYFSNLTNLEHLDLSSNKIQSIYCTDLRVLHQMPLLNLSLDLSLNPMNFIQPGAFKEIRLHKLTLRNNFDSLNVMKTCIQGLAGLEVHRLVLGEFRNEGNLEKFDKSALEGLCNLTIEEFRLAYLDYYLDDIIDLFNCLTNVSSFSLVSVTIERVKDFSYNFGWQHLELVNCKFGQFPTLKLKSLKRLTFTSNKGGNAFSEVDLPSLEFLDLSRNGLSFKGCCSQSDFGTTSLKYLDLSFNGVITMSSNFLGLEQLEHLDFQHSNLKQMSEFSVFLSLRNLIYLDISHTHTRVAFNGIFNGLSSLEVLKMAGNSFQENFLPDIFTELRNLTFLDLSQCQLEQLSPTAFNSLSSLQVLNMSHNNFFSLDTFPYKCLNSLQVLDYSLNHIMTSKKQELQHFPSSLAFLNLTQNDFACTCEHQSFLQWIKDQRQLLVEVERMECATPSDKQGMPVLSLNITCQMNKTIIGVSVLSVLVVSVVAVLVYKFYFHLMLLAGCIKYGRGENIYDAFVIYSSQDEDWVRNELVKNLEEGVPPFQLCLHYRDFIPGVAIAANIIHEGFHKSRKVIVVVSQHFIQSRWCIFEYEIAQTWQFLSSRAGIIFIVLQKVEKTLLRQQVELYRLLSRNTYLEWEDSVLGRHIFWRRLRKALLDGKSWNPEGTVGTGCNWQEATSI

Sequence of UniProt P08571 (P08571 20-345): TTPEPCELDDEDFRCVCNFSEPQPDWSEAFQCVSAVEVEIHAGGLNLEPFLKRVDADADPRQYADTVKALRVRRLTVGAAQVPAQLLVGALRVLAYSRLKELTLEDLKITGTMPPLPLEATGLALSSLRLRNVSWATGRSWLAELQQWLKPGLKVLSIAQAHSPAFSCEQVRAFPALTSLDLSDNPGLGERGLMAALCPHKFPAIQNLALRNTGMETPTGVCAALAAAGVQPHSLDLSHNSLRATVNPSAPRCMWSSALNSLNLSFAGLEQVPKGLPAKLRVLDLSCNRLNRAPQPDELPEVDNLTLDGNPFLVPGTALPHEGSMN

Substance: anti-CD14 neutralizing antibody (rhCD14, ref.: AB383, R&D Systems-UK)
- inhibition of TNF-alpha secretion by human PBMCs stimulated with Env-SU, cells preincubated with anti-CD14 antibody [1]: 83%

Substance: anti-human TLR4 monoclonal antibody HTA125 (eBioscience)
- inhibition of TNF-alpha secretion by human PBMCs stimulated with Env-SU, cells preincubated with anti-TLR4 antibody [2]: 37%

Source: patent US7666420
